Results from patent US20210070872A1 (AGENUS, published 2021).

Key:
[1] = molecular target: T1, recombinant mouse GITR (mouse, UniProt O35714 20-153, limits assumed); test: Western blot, non-reducing
T1 construct: also called Mu GITR recomb protein; immobilized mouse GITR
T1 sequence (looked up): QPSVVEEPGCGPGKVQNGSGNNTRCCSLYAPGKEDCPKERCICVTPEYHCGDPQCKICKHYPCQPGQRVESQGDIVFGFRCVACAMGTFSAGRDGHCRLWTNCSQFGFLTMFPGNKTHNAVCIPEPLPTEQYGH
Method: The specificity of the anti-GITR-antibodies was tested by Western blot against purified recombinant human GITR, recombinant mouse GITR, CMS5a cells transfected with human GITR, wild-type CMS5a cells, activated CD4⁺ T cells and untreated CD4⁺ T cells. The Western blot, under non-reducing conditions, is depicted in FIG. 1. The anti-GITR antibodies were reactive with purified recombinant human GITR, not reactive with recombinant mouse GITR, reactive with recombinant human GITR in CMS5a cells, and reactive with natural human GITR in activated CD4⁺ T cells.

[2] = molecular target: T2, purified recombinant human GITR protein (Example 1) (human, UniProt Q9Y5U5 26-162, limits assumed); test: SPR (BIAcore), huGITR immobilized on CM5, antibody 6.25-100 nM
T2 construct: also called Hu GITR recomb protein; immobilized huGITR
T2 sequence: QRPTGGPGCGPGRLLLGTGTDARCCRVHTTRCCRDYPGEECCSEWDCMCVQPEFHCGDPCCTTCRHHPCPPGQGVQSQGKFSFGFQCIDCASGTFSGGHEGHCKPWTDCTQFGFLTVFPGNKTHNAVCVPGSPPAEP
Method: Analysis of ligand (GITR-L) and monoclonal antibody binding to immobilized huGITR was performed by surface plasmon resonance and measured on BIAcore®. GITR (˜1100 RU) was immobilized onto a CM5 sensor chip using standard amine coupling. Analytes were injected over the immobilized GITR for 15 minutes at a flow rate of 5 μl/min followed by a 10 minute dissociation period. After kinetic runs had been performed the affinity and dissociation constants were simultaneously calculated by BiaEvaluation® software (Biacore Life Sciences). Binding of human GITR-L was analysed over a concentration range of 12.5-200 nM and murine anti-GITR monoclonal antibodies were analysed over a concentration of 6.25-100 nM. […] Affinity and dissociation constants for the antibodies are tabulated below in Table 9.

[3] = molecular target: T3, GITR antigen (R&D systems, di-sulfide-linked homodimer; 689-GR) (human, UniProt Q9Y5U5 26-161); test: SPR (BIAcore T100/T200), antibody captured via anti-human Fab, GITR antigen 40/10/2.5 nM, 1:1 model
T3 construct: Bought
T3 sequence: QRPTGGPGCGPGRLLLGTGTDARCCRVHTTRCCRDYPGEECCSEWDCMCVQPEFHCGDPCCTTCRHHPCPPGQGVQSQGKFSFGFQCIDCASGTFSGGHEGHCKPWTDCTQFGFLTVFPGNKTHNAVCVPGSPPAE
Method: All interactions were analyzed at 25° C. using 1× DPBS (PAA, H15-002) plus P20 (0.05%, Pierce, 28320) as running buffer. Anti-GITR antibodies (8 μg/ml in running buffer) were captured to the chip surface of a CM5 sensor chip (GE Healthcare, Series S CM5, BR-1005-30) via an immobilized anti-human Fab antibody (GE Healthcare, Fab Capture Kit, 28958325). To detect unspecific interactions of the GITR antigen, antibody capture was only performed in flow cell 2, whereas in flow cell 1 only the capturing antibody was immobilized. In addition, an unrelated antibody (anti-IL-1β; SK48E26; International Publication No. WO 95/001997) was used to assess specificity of GITR binding. After capture of the anti-GITR antibodies GITR antigen (R&D systems, di-sulfide-linked homodimer; 689-GR) was run through both flow cells in different amounts (40 nM, 10 nM and 2.5 nM) for each antibody. Also a blank curve (running buffer only) was included in each run. Association was run for 90 s and dissociation for 600 s with a flow rate of 10 μl/min. After each run a regeneration step was performed with 10 mM Glycine pH2.0 (GE Healthcare, BR-1003-55) for 60 s with 30 μl/min. Binding curves were evaluated using BIAcore® T200 evaluation software version 2.0.1 applying a Langmuir 1:1 model with global fit of Rmax.

[4] = molecular target: T4, biotinylated GITR (human, UniProt Q9Y5U5 26-161, limits assumed, biotinylated (sites not given)); test: BLI (Octet), biotin-GITR on streptavidin tips, antibody supernatant
T4 construct: also called GITR-bio; Biotin-GITR
T4 sequence: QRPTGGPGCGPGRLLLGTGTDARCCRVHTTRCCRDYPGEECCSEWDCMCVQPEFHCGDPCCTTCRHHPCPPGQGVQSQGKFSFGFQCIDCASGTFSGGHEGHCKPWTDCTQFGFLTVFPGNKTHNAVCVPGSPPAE
Method: Several hundred germlined antibodies were selected based on binding kinetics as determined by Octet measurements (Octet RED 96 system; ForteBio™ Inc., Menlo Park, Calif.). The experimental procedure was configured according to the instruction manual of the instrument. Biotin-GITR was bound to Streptavidin biosensor (SA) and PBS (pH 7.4) was used as a blank control. Briefly, the interaction analyses were conducted at 30° C. in running buffer (PBS, 0.05% Tween, pH7.4). Sensor tips were pre-wet for 10 minutes in running buffer immediately prior to use, and the micro plates used in the Octet were filled with 200 μl of sample or buffer per well and agitated at 800 rpm. For the experiments, commercially available precoated SA tips were used. Biotinylated GITR was loaded onto the ForteBio SA fibers in PBS pH7.4 for 10 minutes and washed for 4 minutes. For the association phase, the ligand-coated SA tips were immersed for 5 minutes in cell culture supernatant that was diluted 1:10 in running buffer prior to the measurement. Dissociation of the antibody-antigen complex was measured in wells containing the Octet buffer alone for 5 minutes. After each run, the tips were regenerated with Glycine (10 mM, pH 2.0). Affinity, Kₒₙ and Koff were determined with Octet evaluation software v6.3 using a 1:1 binding model with local full fitting.

B1: mAb 231-1039-45 (murine) (antibody, mouse IgG1, V domains shown)
VH: QVQLLQSGTELVRPGVSVKISCKGSGYTFTDYAMYWVKQSHAKSLEWIGVIRTYSGDVTYNQKFKDKATMTVDKSSSIAYMELARLSSEDSAIYYCAKSGTVRGFAYWGQGTLVTVSS
VL: DIVMTQSPSSLTVTAGEKVIMSCKSSQSLLNSGNQKNYLTWYQQKPGQPPKLLIYWASTRESGVPDRFTGSGSGTDFTLTISSVQAEDLAVYHCQNDYSYPYTFGGGTKLEIK
notes: Mouse IgG1 from hybridoma
binding result [1]: no binding | Ka [2]: 4.2e+08 M⁻¹ | Kd [2]: 2.38 nM

B2: mAb 231-32-15 (murine) (antibody, mouse IgG1, V domains shown)
VH: QVQLLQSGTELVRPGVSVKISCKGSGYTFTDYAMYWVKQSHAKSLEWIGVIRTYSGDVTYNQKFKDKATMTVDKSSSIAYMELARLSSEDSAIYYCAKSGTVRGFAYWGQGTLVTVSS
VL: DIVMTQSPSSLTVTAGEKVIMSCKSSQSLLNSGNQKNYLTWYQQKPGQPPKLLIYWASTRESGVPDRFTGSGSGTDFTLTISSVQAEDLAVYHCQNDYSYPYTFGGGTKLEIK
notes: Mouse IgG1 from hybridoma; also called antibody 32-15
binding result [1]: no binding | Ka [2]: 4.04e+08 M⁻¹ | Kd [2]: 2.47 nM

B3: mAb 231-1333-21 (murine) (antibody, mouse IgG1, V domains shown)
VH: QVQLLQSGTELVRPGVSVKISCKGSGYTFTDYAMYWVKQSHAKSLEWIGVIRTYSGDVTYNQKFKDKATMTVDKSSSIAYMELARLSSEDSAIYYCAKSGTVRGFAYWGQGTLVTVSS
VL: DIVMTQSPSSLTVTAGEKVIMSCKSSQSLLNSGNQKNYLTWYQQKPGQPPKLLIYWASTRESGVPDRFTGSGSGTDFTLTISSVQAEDLAVYHCQNDYSYPYTFGGGTKLEIK
notes: Mouse IgG1 from hybridoma
binding result [1]: no binding | Ka [2]: 4.19e+08 M⁻¹ | Kd [2]: 2.39 nM

B4: mAb 231-1042-7 (murine) (antibody, mouse IgG1, V domains shown)
VH: QVQLLQSGTELVRPGVSVKISCKGSGYTFTDYAMYWVKQSHAKSLEWIGVIRTYSGDVTYNQKFKDKATMTVDKSSSIAYMELARLSSEDSAIYYCAKSGTVRGFAYWGQGTLVTVSS
VL: DIVMTQSPSSLTVTAGEKVIMSCKSSQSLLNSGNQKNYLTWYQQKPGQPPKLLIYWASTRESGVPDRFTGSGSGTDFTLTISSVQAEDLAVYHCQNDYSYPYTFGGGTKLEIK
notes: Mouse IgG1 from hybridoma
binding result [1]: no binding | Ka [2]: 4.3e+08 M⁻¹ | Kd [2]: 2.33 nM

B5: Hum231#1 (antibody, V domains shown)
VH: QVQLVQSGAEVKKPGASVKVSCKGSGYTFTDYAMYWVRQAPGQGLEWIGVIRTYSGDVTYNQKFKDRATMTVDKSISTAYMELSRLRSDDTAVYYCAKSGTVRGFAYWGQGTLVTVSS
VL: DIVMTQSPPTLSLSPGERVTLSCKSSQSLLNSGNQKNYLTWYQQKPGQAPRLLIYWASTRESGIPARFSGSGSGTDFTLTISSLQPEDFAVYHCQNDYSYPYTFGQGTKLEIK
notes: Variable regions cloned with IGHG1 (also IGHG4 and Fab vectors exist) and IGKC constant regions; format in each assay not always stated; also called humanized variant Hum231#1 (IGHV1-2*02 and IGK3-7*02)
Kd [3]: 0.702 nM | koff [3]: 0.00249 s⁻¹ | kon [3]: 3.55e+06 M⁻¹ s⁻¹

B6: germline variant antibody 5 (H1916A06 / K1916A06) (antibody, V domains shown)
VH: QVQLVQSGAEVKKPGASVKVSCKGSGYTFTEYAMHWVRQAPGQGLEWMGLIRTYSGGVTYNQKFRGRVTMTVDTSISTAYMELSRLRSDDTAVYYCAKSGTVRGFAYWGQGTLVTVSS
VL: DIVMTQSPDSLAAPGERATINCKSSQSLLNSSNQKNYLTWYHQKPGQPPKLLIYWASTRESGVPDRFTGSGSGTDFTLTISSVQAEDVAVYYCQNEYSFPYTFGQGTKLEIK
notes: IGHG1/IGKC expression vectors; measured from CHO culture supernatant; also called Antibody ID 5
Kd [4]: 1.63 nM | koff [4]: 0.000966 s⁻¹ | kon [4]: 591000 M⁻¹ s⁻¹

B7: germline variant antibody 18 (H1916B09 / K1916B09) (antibody, V domains shown)
VH: QVQLVQSGTEVKKPGASVKVSCKASGYTFTGYAMYWVRQAPGQGMEWIGLIRTFSGEVTYNQKFRGRVTMTVDTSISTAYMELSRLRSDDTAVYYCAKSGTVRGFAYWGQGTLVTVSS
VL: DIVMTQSPDSLAVSLGERATINCKSSQSLLNSSNQKNYLTWYHQKPGQPPKMLIYWASTRESGVPDRFTGSGSGTDFTLTISSVQAEDVAVYYCQNDYSYPYTFGQGTKLEIK
notes: IGHG1/IGKC expression vectors; measured from CHO culture supernatant; also called Antibody ID 18
Kd [4]: 3.77 nM | koff [4]: 0.000824 s⁻¹ | kon [4]: 219000 M⁻¹ s⁻¹

B8: germline variant antibody 20 (H1916B12 / K1916B12) (antibody, V domains shown)
VH: QVQLVQSGTEVKKPGASVKVSCKASGYTFTDYAMYWVRQAPGQGLEWIGVIRTFSGDLSYNQKFRGRVTMTVDTSISTAYMELSRLRSDDTAVYYCAKSGTVRGFAYWGQGTLVTVSS
VL: DIVMTQSPDSLAVSLGERATINCKSSQSLLNSGNQKNYLTWYQQKPGQPPKMLLYWASTRESGVPDRFTGSGSGTDFTLTISSVQAEDVAVYHCQNDYSYPYTFGQGTKLEIK
notes: IGHG1/IGKC expression vectors; measured from CHO culture supernatant; also called Antibody ID 20
Kd [4]: 1.35 nM | koff [4]: 0.00038 s⁻¹ | kon [4]: 283000 M⁻¹ s⁻¹

B9: germline variant antibody 21 (H1916C03 / K1916C03) (antibody, V domains shown)
VH: QVQLVQSGTEVKKPGASVKVSCKGSGYTFTGYVMHWVRQAPGQGMEWIGVIRTFSGDVSYNQKFRERVTMTVDTSISTAYMELSRLRSDDTAVYYCAKSGTVRGFAYWGQGTLVTVSS
VL: DIVMTQSPDSLAVSLGERATINCKSSQSLLNSGNQKNYLTWYHQKPGQPPKLLIYWASTRESGVPDRFSGSGSGTDFTLTISSVQAEDVAVYHCQNDYSYPYTFGQGTKLEIK
notes: IGHG1/IGKC expression vectors; measured from CHO culture supernatant; also called Antibody ID 21
Kd [4]: 8.44 nM | koff [4]: 0.00261 s⁻¹ | kon [4]: 309000 M⁻¹ s⁻¹
